Data set [1] relates to GST-2E11 recombinant protein (fusion between a KCNQ2-15b polypeptide comprising exons 13, 14 and 15b and GST).
The test system of data set [2] is GST protein (negative control, from pGEX2TK) [GST: P08515].
GST protein (negative control, from pGEX2TK) [GST: P08515], sequence (P08515 whole entry): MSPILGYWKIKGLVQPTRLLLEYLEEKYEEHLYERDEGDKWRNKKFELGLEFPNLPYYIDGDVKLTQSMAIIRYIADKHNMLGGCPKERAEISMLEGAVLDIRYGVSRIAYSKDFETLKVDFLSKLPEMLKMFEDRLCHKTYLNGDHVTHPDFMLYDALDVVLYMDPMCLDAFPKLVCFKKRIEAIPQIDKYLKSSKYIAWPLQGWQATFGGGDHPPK

GST-2E11 recombinant protein (fusion between a KCNQ2-15b polypeptide comprising exons 13, 14 and 15b and GST), sequence (chain, as listed by the source): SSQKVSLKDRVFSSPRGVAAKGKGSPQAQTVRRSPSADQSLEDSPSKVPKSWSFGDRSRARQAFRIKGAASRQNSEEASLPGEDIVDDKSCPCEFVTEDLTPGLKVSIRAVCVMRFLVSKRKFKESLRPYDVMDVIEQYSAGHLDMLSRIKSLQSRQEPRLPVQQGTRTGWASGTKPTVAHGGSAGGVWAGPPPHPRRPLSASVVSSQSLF

“PP2A phosphatase in whole cell extracts of the human glioblastoma, astrocytoma cell line HTB-14”: in data set [1], the “in vitro dephosphorylation, loss of the 32P band, with or without okadaic acid” value was “In the line loaded with GST-2E11 fusion proteins incubated in the presence of HTB-14 cell extracts, the band had an extremely weaker intensity”. “recombinant GSK-3β kinase (New England Biolabs)”: the “in vitro phosphorylation, 32P autoradiography after SDS-PAGE” value in data set [2] was “No bands appeared in the three lines corresponding to the negative controls”; in data set [1], “Thus the GST-2E11 protein is phosphorylated by GSK-3β and PKA in vitro”. Regarding “Protein Kinase A Catalytic Subunit (PKA from bovine heart, Sigma)”, the “in vitro phosphorylation, 32P autoradiography after SDS-PAGE” value in data set [2] is “No bands appeared in the three lines corresponding to the negative controls”; in data set [1], “Thus the GST-2E11 protein is phosphorylated by GSK-3β and PKA in vitro”.

The values are drawn from patent US20040203128.
